Measurements reported in patent publication US20240270821A1, “GIP/GLP1/GCG TRI-RECEPTOR AGONISTS AND USES THEREOF” (priority 2023, published 2024).

Key:
Assay in all cases: cell-based or functional assay
[1] = target: human glucagon receptor (human) (UniProt P47871)
[2] = target: T1, human GIP receptor (human) (UniProt P48546)
T1 sequence (looked up): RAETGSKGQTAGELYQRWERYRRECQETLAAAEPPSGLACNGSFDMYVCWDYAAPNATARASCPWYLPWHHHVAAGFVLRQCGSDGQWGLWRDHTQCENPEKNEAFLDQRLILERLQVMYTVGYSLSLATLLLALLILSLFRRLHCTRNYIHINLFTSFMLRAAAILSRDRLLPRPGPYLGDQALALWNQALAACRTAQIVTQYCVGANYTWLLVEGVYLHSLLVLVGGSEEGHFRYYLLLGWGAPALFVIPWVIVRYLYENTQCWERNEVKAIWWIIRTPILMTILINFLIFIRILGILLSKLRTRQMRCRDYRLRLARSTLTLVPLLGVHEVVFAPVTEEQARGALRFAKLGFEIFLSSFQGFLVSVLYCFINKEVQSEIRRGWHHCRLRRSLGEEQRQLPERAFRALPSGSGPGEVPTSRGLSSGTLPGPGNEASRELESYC

hGLP-1R = hGLP-1R (Homo sapiens, UniProt P43220)
Chain of hGLP-1R (P43220 24-463): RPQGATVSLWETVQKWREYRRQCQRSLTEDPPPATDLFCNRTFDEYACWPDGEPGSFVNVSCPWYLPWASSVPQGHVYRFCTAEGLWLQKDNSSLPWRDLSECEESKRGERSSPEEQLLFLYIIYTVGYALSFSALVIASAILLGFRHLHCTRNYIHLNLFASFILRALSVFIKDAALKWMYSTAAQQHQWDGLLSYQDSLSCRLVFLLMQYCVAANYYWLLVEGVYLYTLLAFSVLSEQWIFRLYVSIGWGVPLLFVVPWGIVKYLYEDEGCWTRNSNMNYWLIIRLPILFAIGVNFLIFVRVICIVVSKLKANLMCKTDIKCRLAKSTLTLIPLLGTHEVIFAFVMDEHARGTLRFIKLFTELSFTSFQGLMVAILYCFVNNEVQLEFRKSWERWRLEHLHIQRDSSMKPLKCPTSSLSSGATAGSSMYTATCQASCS

Chain of human glucagon receptor (human) (P47871 26-477): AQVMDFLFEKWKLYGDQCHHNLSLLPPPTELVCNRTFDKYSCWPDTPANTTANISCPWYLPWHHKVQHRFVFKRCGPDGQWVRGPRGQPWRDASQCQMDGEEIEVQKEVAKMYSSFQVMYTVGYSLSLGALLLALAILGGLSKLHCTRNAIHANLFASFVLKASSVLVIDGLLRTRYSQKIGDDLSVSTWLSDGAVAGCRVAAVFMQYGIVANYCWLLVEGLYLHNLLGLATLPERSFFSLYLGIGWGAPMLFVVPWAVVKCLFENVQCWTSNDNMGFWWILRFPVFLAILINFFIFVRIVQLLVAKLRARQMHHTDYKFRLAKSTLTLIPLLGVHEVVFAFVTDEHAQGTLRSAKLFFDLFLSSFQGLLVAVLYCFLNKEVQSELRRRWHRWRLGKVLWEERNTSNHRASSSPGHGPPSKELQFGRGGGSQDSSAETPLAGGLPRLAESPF

B1: Example 1105 (peptide)
chain: YXQGTFTSDXSQXLDXKAQXAFIEXLIAXGPSSGEPPPSGSEE
modifications: not fully specified; non-natural residues; Lys acylated γGlu-C18 diacid; C-terminal amide; synthetic construct; SITE 2: note = 2-Aminoisobutyric Acid; SITE 10: note = 3-(4-Pyridyl)-L-alanine; SITE 13: note = alpha-methyl-leucine; SITE 16: note = L-ornithine; SITE 17: note = Lysine is chemically modified through conjugation of the epsilon-amino group of the Lysine side chain with D-Glutami
Relative cAMP EC50 [1]: 10.7 nM | cAMP Rel EC50 (1% HSA) [1]: 1260 nM | Relative cAMP EC50 [2]: 0.0427 nM | cAMP Rel EC50 (1% HSA) [2]: 5.59 nM | Relative cAMP EC50 (hGLP-1R): 0.875 nM | cAMP Rel EC50 (1% HSA) (hGLP-1R): 92.5 nM

B2: Example 1106 (peptide)
chain: YXQGTFTSDXSQXLDXKAQXQFIEXLIAXGPSSGEPPPSGSEE
modifications: not fully specified; Aib, 4Pal, Orn, Me4Pal, αMeY; lipidated Lys; C-terminal amide; synthetic construct; SITE 2: note = 2-Aminoisobutyric Acid; SITE 10: note = 3-(4-Pyridyl)-L-alanine; SITE 13: note = alpha-methyl-leucine; SITE 16: note = L-ornithine; SITE 17: note = Lysine is chemically modified through conjugation of the epsilon-amino group of the Lysine side chain with D-Glutami
Relative cAMP EC50 [1]: 7.71 nM | cAMP Rel EC50 (1% HSA) [1]: 1030 nM | Relative cAMP EC50 [2]: 0.0312 nM | cAMP Rel EC50 (1% HSA) [2]: 4.23 nM | Relative cAMP EC50 (hGLP-1R): 0.87 nM | cAMP Rel EC50 (1% HSA) (hGLP-1R): 119 nM

B3: Example 1129 (peptide)
chain: YXQGTFTSDXSQXLDXKAQXQFIQXLIEXGPSSGEPPPSGGGE
modifications: non-natural residues; lysine acylated with C18 diacid; C-terminal amide; synthetic construct; SITE 2: note = 2-Aminoisobutyric Acid; SITE 10: note = 3-(4-Pyridyl)-L-alanine; SITE 13: note = alpha-methyl-leucine; SITE 16: note = L-ornithine; SITE 17: note = Lysine is chemically modified through conjugation of the epsilon-amino group of the Lysine side chain with D-Glutami
Relative cAMP EC50 [1]: 6.11 nM | cAMP Rel EC50 (1% HSA) [1]: 796 nM | Relative cAMP EC50 [2]: 0.048 nM | cAMP Rel EC50 (1% HSA) [2]: 4.16 nM | Relative cAMP EC50 (hGLP-1R): 0.501 nM | cAMP Rel EC50 (1% HSA) (hGLP-1R): 56.6 nM

B4: Example 1100 (peptide)
chain: YXQGTFTSDXSQXLDXKAQXQFIEXLIAXGPSSGEPPPSGSEE
modifications: non-natural residues; Lys acylated AEEA-γGlu-C18 diacid; C-terminal amide; synthetic construct; SITE 2: note = 2-Aminoisobutyric Acid; SITE 10: note = 3-(4-Pyridyl)-L-alanine; SITE 13: note = alpha-methyl-leucine; SITE 16: note = L-ornithine; SITE 17: note = Lysine is chemically modified through conjugation of the epsilon-amino group of the Lysine side chain with (2-[2-(2-
Relative cAMP EC50 [1]: 5.28 nM | cAMP Rel EC50 (1% HSA) [1]: 577 nM | Relative cAMP EC50 [2]: 0.0694 nM | cAMP Rel EC50 (1% HSA) [2]: 9.04 nM | Relative cAMP EC50 (hGLP-1R): 0.514 nM | cAMP Rel EC50 (1% HSA) (hGLP-1R): 77.2 nM

B5: Example 1123 (peptide)
chain: YXQGTFTSDXSQXLDKKAQXAFIEXLIEXGPSSGEPPPSGE
modifications: Aib, 4Pal, αMeL, Me4Pal; acylated Lys; C-terminal amide; synthetic construct; SITE 2: note = 2-Aminoisobutyric Acid; SITE 10: note = 3-(4-Pyridyl)-L-alanine; SITE 13: note = alpha-methyl-leucine; SITE 17: note = Lysine is chemically modified through conjugation of the epsilon-amino group of the Lysine side chain with (gamma-Glu)2-CO-(CH2)16-CO2H; SITE 20:
Relative cAMP EC50 [1]: 5.53 nM | cAMP Rel EC50 (1% HSA) [1]: 441 nM | Relative cAMP EC50 [2]: 0.101 nM | cAMP Rel EC50 (1% HSA) [2]: 3.89 nM | Relative cAMP EC50 (hGLP-1R): 4.47 nM | cAMP Rel EC50 (1% HSA) (hGLP-1R): 191 nM

B6: Example 1143 (peptide)
chain: YXQGTXTSDXXIXLDXKAQXEFIEXLIEGGPSSGEPPPTGE
modifications: Non-natural residues; K acylated AEEA-γGlu-C18 diacid; C-terminal amide; synthetic construct; SITE 2: note = 2-Aminoisobutyric Acid; SITE 6: note = alpha-methyl-2-fluoro-L-phenylalanine; SITE 10: note = 3-(4-Pyridyl)-L-alanine; SITE 11: note = alpha-methyl-L-serine; SITE 13: note = alpha-methyl-leucine; SITE 16: note = L-ornithine; SITE 17: note = Lysine is chemically mo
Relative cAMP EC50 [1]: 1.42 nM | cAMP Rel EC50 (1% HSA) [1]: 182 nM | Relative cAMP EC50 [2]: 0.0087 nM | cAMP Rel EC50 (1% HSA) [2]: 0.751 nM | Relative cAMP EC50 (hGLP-1R): 0.381 nM | cAMP Rel EC50 (1% HSA) (hGLP-1R): 49.6 nM

B7: Example 1147 (peptide)
chain: YXQGTXTSDXXIXLDXKAQXEFIEXLIEGGPSSGEPPPESE
modifications: non-natural residues; K acylated AEEA-γGlu-C18 diacid; C-amide; synthetic construct; SITE 2: note = 2-Aminoisobutyric Acid; SITE 6: note = alpha-methyl-2-fluoro-L-phenylalanine; SITE 10: note = 3-(4-Pyridyl)-L-alanine; SITE 11: note = alpha-methyl-L-serine; SITE 13: note = alpha-methyl-leucine; SITE 16: note = L-ornithine; SITE 17: note = Lysine is chemically mo
Relative cAMP EC50 [1]: 1.17 nM | cAMP Rel EC50 (1% HSA) [1]: 167 nM | Relative cAMP EC50 [2]: 0.00753 nM | cAMP Rel EC50 (1% HSA) [2]: 0.831 nM | Relative cAMP EC50 (hGLP-1R): 0.347 nM | cAMP Rel EC50 (1% HSA) (hGLP-1R): 45.4 nM

B8: Example 1152 (peptide)
chain: YXQGTXTSDXXIXLDXKAQXEFIEXLVEGGPSSGAPPPTGE
modifications: not fully specified; acylated lysine AEEA-γGlu-C18 diacid; non-natural residues; C-terminal amide; synthetic construct; SITE 2: note = 2-Aminoisobutyric Acid; SITE 6: note = alpha-methyl-2-fluoro-L-phenylalanine; SITE 10: note = 3-(4-Pyridyl)-L-alanine; SITE 11: note = alpha-methyl-L-serine; SITE 13: note = alpha-methyl-leucine; SITE 16: note = L-ornithine; SITE 17: note = Lysine is chemically mo
Relative cAMP EC50 [1]: 2.32 nM | cAMP Rel EC50 (in the presence of 1% HSA) [1]: 287 nM | Relative cAMP EC50 [2]: 0.0101 nM | cAMP Rel EC50 (in the presence of 1% HSA) [2]: 1.21 nM | Relative cAMP EC50 (hGLP-1R): 0.371 nM | cAMP Rel EC50 (in the presence of 1% HSA) (hGLP-1R): 43.8 nM

B9: Example 1151 (peptide)
chain: YXQGTXTSDXXIXLDXKAQXEFIEXLIEGGPSSGEPPPSGE
modifications: not fully specified; non-natural residues; acylated Lys; C-terminal amide; synthetic construct; SITE 2: note = 2-Aminoisobutyric Acid; SITE 6: note = alpha-methyl-2-fluoro-L-phenylalanine; SITE 10: note = 3-(4-Pyridyl)-L-alanine; SITE 11: note = alpha-methyl-L-serine; SITE 13: note = alpha-methyl-leucine; SITE 16: note = L-ornithine; SITE 17: note = Lysine is chemically mo
Relative cAMP EC50 [1]: 1.31 nM | cAMP Rel EC50 (1% HSA) [1]: 206 nM | Relative cAMP EC50 [2]: 0.00339 nM | cAMP Rel EC50 (1% HSA) [2]: 0.287 nM | Relative cAMP EC50 (hGLP-1R): 0.262 nM | cAMP Rel EC50 (1% HSA) (hGLP-1R): 40 nM

B10: Example 1149 (peptide)
chain: YXQGTXTSDXXIXLDXKAQXEFIEXLIEGGPSSGEPPPEGE
modifications: non-natural residues; AEEA-γGlu-C18 diacid on Lys; C-terminal amide; synthetic construct; SITE 2: note = 2-Aminoisobutyric Acid; SITE 6: note = alpha-methyl-2-fluoro-L-phenylalanine; SITE 10: note = 3-(4-Pyridyl)-L-alanine; SITE 11: note = alpha-methyl-L-serine; SITE 13: note = alpha-methyl-leucine; SITE 16: note = L-ornithine; SITE 17: note = Lysine is chemically mo
Relative cAMP EC50 [1]: 1.37 nM | cAMP Rel EC50 (1% HSA) [1]: 184 nM | Relative cAMP EC50 [2]: 0.00804 nM | cAMP Rel EC50 (1% HSA) [2]: 0.96 nM | Relative cAMP EC50 (hGLP-1R): 0.352 nM | cAMP Rel EC50 (1% HSA) (hGLP-1R): 52.2 nM

B11: Example 1153 (peptide)
chain: YXQGTXTSDXXIXLDXKAQXEFIEXLVEGGPSSGEPPPTGE
modifications: not fully specified; Aib, αMeF(2F), 4Pal, αMeS, Orn, Me4Pal, αMeY; acylated; amide; synthetic construct; SITE 2: note = 2-Aminoisobutyric Acid; SITE 6: note = alpha-methyl-2-fluoro-L-phenylalanine; SITE 10: note = 3-(4-Pyridyl)-L-alanine; SITE 11: note = alpha-methyl-L-serine; SITE 13: note = alpha-methyl-leucine; SITE 16: note = L-ornithine; SITE 17: note = Lysine is chemically mo
Relative cAMP EC50 [1]: 2.69 nM | cAMP Rel EC50 (in the presence of 1% HSA) [1]: 215 nM | Relative cAMP EC50 [2]: 0.0109 nM | cAMP Rel EC50 (in the presence of 1% HSA) [2]: 1.39 nM | Relative cAMP EC50 (hGLP-1R): 0.33 nM | cAMP Rel EC50 (in the presence of 1% HSA) (hGLP-1R): 52.7 nM

B12: Example 1154 (peptide)
chain: YXQGTXTSDXXIXLDXKAQXEFIEXLVEGGPSSGAPPPGGE
modifications: not fully specified; non-natural residues; AEEA-γGlu-C18 diacid acyl; C-terminal amide; synthetic construct; SITE 2: note = 2-Aminoisobutyric Acid; SITE 6: note = alpha-methyl-2-fluoro-L-phenylalanine …; SITE 10: note = 3-(4-Pyridyl)-L-alanine; SITE 11: note = alpha-methyl-L-serine; SITE 13: note = alpha-methyl-leucine; SITE 16: note = L-ornithine; SITE 17: note = Lysine is chemically mo
Relative cAMP EC50 [1]: 6.42 nM | cAMP Rel EC50 (in the presence of 1% HSA) [1]: 320 nM | Relative cAMP EC50 [2]: 0.00879 nM | cAMP Rel EC50 (in the presence of 1% HSA) [2]: 0.954 nM | Relative cAMP EC50 (hGLP-1R): 0.344 nM | cAMP Rel EC50 (in the presence of 1% HSA) (hGLP-1R): 44.5 nM

B13: Example 1155 (peptide)
chain: YXQGTXTSDXXIXLDXKAQXEFIEXLVEGGPSSGEPPPGGE
modifications: not fully specified; Lys acylated AEEA-γGlu-C18 diacid; non-natural residues; C-amide; synthetic construct; SITE 2: note = 2-Aminoisobutyric Acid; SITE 6: note = alpha-methyl-2-fluoro-L-phenylalanine; SITE 10: note = 3-(4-Pyridyl)-L-alanine; SITE 11: note = alpha-methyl-L-serine; SITE 13: note = alpha-methyl-leucine; SITE 16: note = L-ornithine; SITE 17: note = Lysine is chemically mo
Relative cAMP EC50 [1]: 1.83 nM | cAMP Rel EC50 (in the presence of 1% HSA) [1]: 288 nM | Relative cAMP EC50 [2]: 0.00917 nM | cAMP Rel EC50 (in the presence of 1% HSA) [2]: 0.888 nM | Relative cAMP EC50 (hGLP-1R): 0.434 nM | cAMP Rel EC50 (in the presence of 1% HSA) (hGLP-1R): 44.4 nM

B14: Example 1145 (peptide)
chain: YXQGTXTSDXXIXLDXKAQXEFIEXLIEGGPSSGEPPPGGE
modifications: non-natural residues; lipidated Lys AEEA-γGlu-C18 diacid; C-term amide; synthetic construct; SITE 2: note = 2-Aminoisobutyric Acid; SITE 6: note = alpha-methyl-2-fluoro-L-phenylalanine; SITE 10: note = 3-(4-Pyridyl)-L-alanine; SITE 11: note = alpha-methyl-L-serine; SITE 13: note = alpha-methyl-leucine; SITE 16: note = L-ornithine; SITE 17: note = Lysine is chemically mo
Relative cAMP EC50 [1]: 1.07 nM | cAMP Rel EC50 (1% HSA) [1]: 148 nM | Relative cAMP EC50 [2]: 0.00689 nM | cAMP Rel EC50 (1% HSA) [2]: 0.848 nM | Relative cAMP EC50 (hGLP-1R): 0.313 nM | cAMP Rel EC50 (1% HSA) (hGLP-1R): 39.1 nM
